Laboratory results: paper doi:10.1101/2024.05.10.593582
pKd: −log10 of the molar value.

Biological target: His6-Gp54^Bas11 (phage Bas11)
Test: ITC

pKd: 6.10
stoichiometry N: 1
Substance: His6-MBP-CapRel^SJ46 (natural protein)
